This note sets out measurements from patent publication US20210121563A1 (Novartis, published 2021).

The target in test [1] is T1, Programmed Death 1 (PD-1) (UniProt Q15116 25-288, limits assumed). Briefly: FACS blocking of ligand-Ig binding to PD-1, MFI of bound ligand; ligand by the legend paragraph 125 'PD-L1-Ig and PD-L2-Ig' (no ligand named on the sheet; FIG. 8B is PD-L2-Ig, so most likely PD-L1-Ig); cells not named.
Test [2] concerns the target T1, Programmed Death 1 (PD-1). Briefly: rank of the clone in the competition binding assay with labeled murine mAb BAP049, 1st experiment; higher number = worse.
Test [3] deals with T1, Programmed Death 1 (PD-1). The test is described as follows: rank of the clone in the competition binding assay with labeled murine mAb BAP049, 2nd experiment; higher number = worse.
In test [4] the target is T1, Programmed Death 1 (PD-1). Briefly: rank of the clone among the 16 humanized clones by FACS binding data; higher number = worse. In general terms: A flow cytometer gives signals particle by particle.

T1 sequence (Q15116 25-288 limits assumed): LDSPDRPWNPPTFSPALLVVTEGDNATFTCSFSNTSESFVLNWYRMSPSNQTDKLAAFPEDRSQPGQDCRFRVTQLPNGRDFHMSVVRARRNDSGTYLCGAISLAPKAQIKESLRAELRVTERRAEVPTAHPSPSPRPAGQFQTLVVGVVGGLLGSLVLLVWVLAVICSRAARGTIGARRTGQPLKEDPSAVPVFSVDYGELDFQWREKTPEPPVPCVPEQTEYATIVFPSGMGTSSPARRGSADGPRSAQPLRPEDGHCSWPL

B1: BAP049-hum09 (antibody, human IgG4 S228P, kappa)
heavy: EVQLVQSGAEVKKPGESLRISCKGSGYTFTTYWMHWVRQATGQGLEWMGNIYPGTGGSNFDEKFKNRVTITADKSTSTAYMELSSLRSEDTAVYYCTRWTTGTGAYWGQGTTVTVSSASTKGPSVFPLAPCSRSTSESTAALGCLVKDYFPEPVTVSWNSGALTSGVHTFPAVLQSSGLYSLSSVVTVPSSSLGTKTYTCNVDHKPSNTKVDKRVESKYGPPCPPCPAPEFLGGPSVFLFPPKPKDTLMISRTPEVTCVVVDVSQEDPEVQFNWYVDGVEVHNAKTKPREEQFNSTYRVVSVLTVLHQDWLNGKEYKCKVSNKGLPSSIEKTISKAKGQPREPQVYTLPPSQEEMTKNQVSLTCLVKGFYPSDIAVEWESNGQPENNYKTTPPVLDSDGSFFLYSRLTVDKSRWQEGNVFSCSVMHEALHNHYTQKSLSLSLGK
light: EIVLTQSPDFQSVTPKEKVTITCKSSQSLLDSGNQKNFLTWYQQKPGQAPRLLIYWASTRESGVPSRFSGSGSGTDFTFTISSLEAEDAATYYCQNDYSYPYTFGQGTKVEIKRTVAAPSVFIFPPSDEQLKSGTASVVCLLNNFYPREAKVQWKVDNALQSGNSQESVTEQDSKDSTYSLSSTLTLSKADYEKHKVYACEVTHQGLSSPVTKSFNRGEC
notes: also called humanized BAP049 clone hum09
As for B1, the “IC50 (read off the curve)” value in test [1] was approximately 0.7 µg/mL. Also, the “Competition Binding, 1st exp. (rank)” value in test [2] amounted to 2. Also, in test [3], the “Competition Binding, 2nd exp. (rank)” value amounted to 4. In addition, the “Ranking, FACS data” value in test [4] stood at 7.
